Measured values from patent US20210147519A1 (Regeneron, published 2021).

What was measured:
[1] = biological target: T1, Recombinant bacterial IsdB expressed with a hexahistidine tag (IsdB-6xHis; REGN2655) (Staphylococcus aureus, UniProt A6QG30 42-613); assay: SPR Biacore, captured Ab, IsdB-6xHis analyte, 25C
[2] = biological target: T2, native human complement component C1q protein purified from human serum (Quidel) (human, UniProt P02745 23-245; P02746 28-253; P02747 29-245); assay: competition ELISA, 30 pM biot-hC1q, competitor plate-coated hIgG3-k
T2 construct: the protein assayed was bought native serum C1q (Quidel); no signal peptide limits are stated; also called hC1q; human C1q

[3] = biological target: T2, native human complement component C1q …; assay: SPR Biacore, captured Ab, hC1q analyte, 37C
[4] = biological target: T1, Recombinant bacterial IsdB expressed …; assay: SPR Biacore, captured Ab, IsdB-6xHis analyte, 37C
[5] = biological target: T3, IsdB expressed on the surface of S. aureus Wood 46 (Staphylococcus aureus); assay: ELISA on plate-coated S. aureus Wood 46
T3 construct: whole, on cells
Protocol: Briefly, S. aureus Wood 46 was grown in RPMI overnight, washed in PBS and adjusted to an OD₆₀₀ of 0.25. MaxiSorp 96 well microtiter plates were coated overnight with 100 μl of S. aureus culture per well. Plates were washed and blocked with 3% BSA. […] Anti-human HRP conjugated secondary antibody was added to washed plates. Luminescence reagents (SuperSignal Pico) were then added to the wells and signal was detected in a plate reader (Victor X3 plate reader, Perkin Elmer) immediately. Luminescence values were analyzed by a four-parameter logistic equation over a 7-point response curve (GraphPad Prism) to determine the binding EC₅₀, of the antibodies.

[6] = biological target: T2, native human complement component C1q …; assay: SPR Biacore, captured Ab, hC1q analyte, 25C
[7] = biological target: T2, native human complement component C1q …; assay: cell-based or functional assay
[8] = biological target: T2, native human complement component C1q …; assay: competition ELISA, 30 pM biot-hC1q, competitor plate-coated hIgG1-k
[9] = biological target: T2, native human complement component C1q …; assay: cell-based or functional assay; remark: listed apart in the source
[10] = biological target: T2, native human complement component C1q …; assay: competition ELISA, 6 nM biot-hC1q, competitor plate-coated hIgG2-k
[11] = biological target: T2, native human complement component C1q …; assay: competition ELISA, 6 nM biot-hC1q, competitor plate-coated hIgM
[12] = biological target: T2, native human complement component C1q …; assay: cell-based or functional assay; remark: listed apart in the source

T1 sequence (A6QG30 42-613, tags left off): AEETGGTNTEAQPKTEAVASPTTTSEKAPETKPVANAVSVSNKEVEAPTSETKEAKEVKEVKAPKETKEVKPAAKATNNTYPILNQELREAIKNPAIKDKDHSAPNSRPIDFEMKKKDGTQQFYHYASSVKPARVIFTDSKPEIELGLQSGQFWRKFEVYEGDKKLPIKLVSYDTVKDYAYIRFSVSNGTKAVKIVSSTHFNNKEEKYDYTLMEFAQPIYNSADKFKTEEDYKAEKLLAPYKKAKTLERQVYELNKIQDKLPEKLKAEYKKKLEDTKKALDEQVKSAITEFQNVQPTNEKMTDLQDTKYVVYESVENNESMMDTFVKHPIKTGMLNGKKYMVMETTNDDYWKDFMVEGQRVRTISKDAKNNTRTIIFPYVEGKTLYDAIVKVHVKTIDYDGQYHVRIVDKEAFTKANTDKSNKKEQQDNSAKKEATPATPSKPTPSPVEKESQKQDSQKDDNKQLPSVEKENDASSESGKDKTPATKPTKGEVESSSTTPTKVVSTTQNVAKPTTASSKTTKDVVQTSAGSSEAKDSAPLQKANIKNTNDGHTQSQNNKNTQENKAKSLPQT
T2 sequence (P02745 23-245 limits assumed, chain 1 of 3): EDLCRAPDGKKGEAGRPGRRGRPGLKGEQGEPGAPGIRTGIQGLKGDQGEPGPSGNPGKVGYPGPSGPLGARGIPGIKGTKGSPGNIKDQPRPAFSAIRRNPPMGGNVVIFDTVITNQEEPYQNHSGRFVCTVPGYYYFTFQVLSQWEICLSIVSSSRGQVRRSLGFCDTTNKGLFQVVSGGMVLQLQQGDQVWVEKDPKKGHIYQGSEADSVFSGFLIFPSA
T2 sequence (P02746 28-253 limits assumed, chain 2 of 3): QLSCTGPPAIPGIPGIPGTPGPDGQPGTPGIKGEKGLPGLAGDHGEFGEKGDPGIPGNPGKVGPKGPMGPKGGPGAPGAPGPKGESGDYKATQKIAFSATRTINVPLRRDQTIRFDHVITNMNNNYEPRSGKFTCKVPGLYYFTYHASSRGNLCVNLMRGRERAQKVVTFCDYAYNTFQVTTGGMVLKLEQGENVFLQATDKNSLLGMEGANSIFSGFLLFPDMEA
T2 sequence (P02747 29-245 limits assumed, chain 3 of 3): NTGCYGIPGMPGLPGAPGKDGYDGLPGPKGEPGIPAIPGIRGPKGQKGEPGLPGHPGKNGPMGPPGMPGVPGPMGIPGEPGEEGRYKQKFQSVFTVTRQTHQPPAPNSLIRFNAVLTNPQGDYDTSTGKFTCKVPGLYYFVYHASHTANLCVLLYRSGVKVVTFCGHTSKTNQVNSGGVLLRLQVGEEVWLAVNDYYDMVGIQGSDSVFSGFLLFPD
T3 sequence (Q2FZF0 41-613): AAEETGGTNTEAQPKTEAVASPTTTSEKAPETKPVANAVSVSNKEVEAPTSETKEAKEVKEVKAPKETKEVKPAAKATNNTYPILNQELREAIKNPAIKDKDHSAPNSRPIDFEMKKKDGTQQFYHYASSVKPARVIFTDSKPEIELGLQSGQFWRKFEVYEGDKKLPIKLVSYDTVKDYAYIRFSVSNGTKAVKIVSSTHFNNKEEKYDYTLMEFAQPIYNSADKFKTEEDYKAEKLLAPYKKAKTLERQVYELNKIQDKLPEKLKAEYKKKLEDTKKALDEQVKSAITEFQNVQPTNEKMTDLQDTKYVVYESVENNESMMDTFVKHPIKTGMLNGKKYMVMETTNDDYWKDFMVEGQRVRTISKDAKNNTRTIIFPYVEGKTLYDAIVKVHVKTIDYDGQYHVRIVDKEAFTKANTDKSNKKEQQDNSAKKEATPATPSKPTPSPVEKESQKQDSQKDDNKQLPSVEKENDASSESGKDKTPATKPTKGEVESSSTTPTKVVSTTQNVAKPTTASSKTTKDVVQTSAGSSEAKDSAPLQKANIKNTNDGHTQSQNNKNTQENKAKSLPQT

Binder	Kd [1] [nM]	koff [1] [s⁻¹]	kon [1] [M⁻¹ s⁻¹]	t½ [1] [min]	% Blockade with 30 nM bispecific Ab [2] [%]	Kd [3] [nM]	koff [3] [s⁻¹]	kon [3] [M⁻¹ s⁻¹]	t1/2 [3] [min]	Kd [4] [nM]	koff [4] [s⁻¹]	kon [4] [M⁻¹ s⁻¹]	t1/2 [4] [min]	EC50 [5] [nM]	Kd [6] [nM]	koff [6] [s⁻¹]	kon [6] [M⁻¹ s⁻¹]	t½ [6] [min]	% Blockade with 30 nM bispecific Ab [8] [%]	C1q deposition on S. aureus Cowan I EC50 [9] [nM]	further results
H1H20636D (bispecific antibody, V domains shown, also called anti-IsdB x anti-C1q bispecific antibody) VH 1: QLQLQESGPGLVKPSETLSLTCTVSGGSISSSSYYWVWIRQPPGKGLEWIGNIYFSGSTYYNPSLKSRVTITVDTSKNQFSLKMTSVTAADTAVYYCARPFYGSRGDYYYGMDVWGQGTTVTVSS VH 2: EIVLTQSPGTLSLSPGERATLSCRASQNVRSGYLAWYQQKPGQAPRLLIYGTSTRVTGIPDRFSGFGSGTDFTLTISRLEPEDFAVYYCQQYGNSPLFTFGGGTKVEIK VL: not shown	4.98	0.000378	75800	30.6	-11	2.73	0.0179	6.57e+06	0.64	17.4	0.00144	82800	8.04	9.52	2.12	0.0102	4.81e+06	1.14	-29	8.54	Classical Pathway hemolysis assay % inhibition [7]: 0%; % Blockade with 600 nM bispecific Ab [10]: 20%; % Blockade with 600 nM bispecific Ab [11]: 11%
H1H20638D (bispecific antibody, V domains shown, also called anti-IsdB x anti-C1q bispecific antibody) VH 1: QLQLQESGPGLVKPSETLSLTCTVSGGSISSSSYYWVWIRQPPGKGLEWIGNIYFSGSTYYNPSLKSRVTITVDTSKNQFSLKMTSVTAADTAVYYCARPFYGSRGDYYYGMDVWGQGTTVTVSS VH 2: DIQMTQSPSSLSASIGDRVTITCRTSQDINNYLAWYQQKPGKVPKLLIFSASTLQSGVPSRFSGSGFGTDFTFIISSLQPEDVATYFCQKYDSGRGLSFGGGTKVEIK VL: not shown	10.8	0.000498	46200	23.2	-25	1.98	0.011	5.53e+06	1.05	17.8	0.00144	80900	8.03	10.4	1.28	0.00511	4.01e+06	2.26	-30	2.55	Classical Pathway hemolysis assay % inhibition [7]: 24%; % Blockade with 600 nM bispecific Ab [10]: 33%; inhibition of CDC of Daudi cells, IC50 [M] [12]: 1e-07 M; inhibition of CDC of Daudi cells, Max % Inhibition [12]: ≥ 99%; % Blockade with 600 nM bispecific Ab [11]: 28%
H1H20641D (bispecific antibody, V domains shown, also called anti-IsdB x anti-C1q bispecific antibody) VH 1: QLQLQESGPGLVKPSETLSLTCTVSGGSISSSSYYWVWIRQPPGKGLEWIGNIYFSGSTYYNPSLKSRVTITVDTSKNQFSLKMTSVTAADTAVYYCARPFYGSRGDYYYGMDVWGQGTTVTVSS VH 2: QVQLVESGGGVVQPGRSLRLSCAASGFTFSNYGMHWVRQAPGKGLEWLAVIYYDGIKRYYGDSVQGRFIISRDNSKNTLYLQMNSLRDEDTAVYYCARAFSAAGPYNYYYAMDVWGQGTTVTVSS VL: not shown	6.02	0.000438	72800	26.4	-13	0.18	0.00027	1.5e+06	42.9	14.7	0.00141	95900	8.19	10.3	0.154	0.00068	4.38e+06	17.1	-17	1.29	Classical Pathway hemolysis assay % inhibition [7]: 0%; % Blockade with 600 nM bispecific Ab [10]: 19%; inhibition of CDC of Daudi cells, IC50 [M] [12]: > 1e-06 M; inhibition of CDC of Daudi cells, Max % Inhibition [12]: 33%; % Blockade with 600 nM bispecific Ab [11]: 14%
H1H20637D (bispecific antibody, V domains shown, also called anti-IsdB x anti-C1q bispecific antibody) VH 1: QLQLQESGPGLVKPSETLSLTCTVSGGSISSSSYYWVWIRQPPGKGLEWIGNIYFSGSTYYNPSLKSRVTITVDTSKNQFSLKMTSVTAADTAVYYCARPFYGSRGDYYYGMDVWGQGTTVTVSS VH 2: EIVMTQSPATLSVSPGERATLSCTASQTINSNLAWYQQRPGQAPRLLIYGASTRATGTPARFRGSGSGTEFTLTISSLLSEDFAVYYCQNYNNWPPGGPRTFGPGTKVDIK VL: not shown	9.34	0.000468	50100	24.7	-2	2.33	0.0407	1.75e+07	0.28	17.4	0.00149	85100	7.78	11.3	1.54	0.0124	8.01e+06	0.93	-3	5	Classical Pathway hemolysis assay % inhibition [7]: 50%; % Blockade with 600 nM bispecific Ab [10]: 70%; IC50 [10]: 100 nM; inhibition of CDC of Daudi cells, IC50 [M] [12]: > 1e-07 M; inhibition of CDC of Daudi cells, Max % Inhibition [12]: 67%; % Blockade with 600 nM bispecific Ab [11]: 88%; IC50 [11]: 71 nM
H1H20645D (bispecific antibody, V domains shown, also called anti-IsdB x anti-C1q bispecific antibody) VH 1: QLQLQESGPGLVKPSETLSLTCTVSGGSISSSSYYWVWIRQPPGKGLEWIGNIYFSGSTYYNPSLKSRVTITVDTSKNQFSLKMTSVTAADTAVYYCARPFYGSRGDYYYGMDVWGQGTTVTVSS VH 2: EVQLVQSGPEVKKPGESLKIACKASGYSFTSYWIGWVRQMPGKGLEWMGIIFPADSDTRYSPSFQGQVTISADKSITTAYLQWRSLQASDTAKYYCVRHVRWSGENWGQGTLVTVSS VL: not shown	9.95	0.000551	55400	21	87	0.88	0.0317	3.6e+07	0.36	19.1	0.00155	81200	7.43	11.9	0.158	0.00452	2.86e+07	2.56	94	0.298	IC50 [2]: 5.3 nM; IC50 [8]: 0.84 nM; % Blockade with 600 nM bispecific Ab [10]: 87%; IC50 [10]: 18 nM; inhibition of CDC of Daudi cells, IC50 [M] [12]: 3.4e-08 M; inhibition of CDC of Daudi cells, Max % Inhibition [12]: ≥ 99%; % Blockade with 600 nM bispecific Ab [11]: 95%; IC50 [11]: 13 nM
